Data as given in article PMC3470569, “Probing Subunit-Subunit Interactions in the Yeast Vacuolar ATPase by Peptide Arrays” (PLoS ONE, 2012).
Ends that are not written are not given here. cellulose = not defined here

T1: full-length subunit H (Vma13p), N-terminal MBP fusion (S. cerevisiae, UniProt P41807 1-478)
T1 construct: V-ATPase subunit H (Vma13p), S. cerevisiae, 478 amino acids; Construct provided by the laboratory of Dr. Patricia Kane; also called MBP-H; source: E. coli, purified (amylose column; ultrafiltration or size exclusion chromatography); not shown: MBP, N-terminal, kept
T1 sequence (looked up): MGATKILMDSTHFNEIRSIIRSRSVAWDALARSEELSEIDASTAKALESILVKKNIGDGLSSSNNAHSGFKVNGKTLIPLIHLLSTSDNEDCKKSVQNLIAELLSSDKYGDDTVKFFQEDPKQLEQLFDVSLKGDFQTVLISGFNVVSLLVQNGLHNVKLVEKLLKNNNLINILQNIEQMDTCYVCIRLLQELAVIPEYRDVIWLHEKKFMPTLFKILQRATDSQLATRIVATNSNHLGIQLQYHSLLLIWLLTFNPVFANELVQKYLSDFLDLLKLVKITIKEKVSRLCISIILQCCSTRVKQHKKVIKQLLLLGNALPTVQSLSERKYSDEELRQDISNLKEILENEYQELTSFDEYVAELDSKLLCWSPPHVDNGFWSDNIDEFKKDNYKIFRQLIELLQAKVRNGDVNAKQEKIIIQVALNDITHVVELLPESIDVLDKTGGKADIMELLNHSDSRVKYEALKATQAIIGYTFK

T2: subunit E (Vma4p), N-terminal MBP fusion (S. cerevisiae, UniProt P22203 1-233)
T2 construct: V-ATPase subunit E (Vma4p), S. cerevisiae, 233 amino acids; also called MBP-E; source: E. coli, purified (amylose column); not shown: MBP, N-terminal, kept
T2 sequence (looked up): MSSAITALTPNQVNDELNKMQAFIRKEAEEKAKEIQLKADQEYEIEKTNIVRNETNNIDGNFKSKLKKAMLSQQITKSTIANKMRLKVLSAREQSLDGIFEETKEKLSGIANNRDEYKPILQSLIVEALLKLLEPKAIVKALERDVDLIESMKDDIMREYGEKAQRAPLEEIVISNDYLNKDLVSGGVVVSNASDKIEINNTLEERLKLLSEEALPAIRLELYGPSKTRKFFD

T3: EG heterodimer (untagged subunit E with FLAG-tagged subunit G) (S. cerevisiae, UniProt P22203 1-233; P48836 1-114)
T3 construct: V-ATPase subunit E (Vma4p), S. cerevisiae, tagless; V-ATPase subunit G (Vma10p), S. cerevisiae; also called EG-FLAG; source: E. coli, co-expressed from one bicistronic plasmid, purified (amylose, PreScission cleavage of MBP, DEAE, amylose); not shown: MBP, N-terminal, cleaved; FLAG, N-terminal, kept
T3 sequence (looked up) 1: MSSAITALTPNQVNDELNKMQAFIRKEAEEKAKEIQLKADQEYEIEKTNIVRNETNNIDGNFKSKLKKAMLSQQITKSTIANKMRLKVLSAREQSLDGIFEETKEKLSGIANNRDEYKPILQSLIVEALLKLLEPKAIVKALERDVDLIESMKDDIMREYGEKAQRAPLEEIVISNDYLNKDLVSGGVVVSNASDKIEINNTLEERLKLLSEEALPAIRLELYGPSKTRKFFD
T3 sequence (looked up) 2: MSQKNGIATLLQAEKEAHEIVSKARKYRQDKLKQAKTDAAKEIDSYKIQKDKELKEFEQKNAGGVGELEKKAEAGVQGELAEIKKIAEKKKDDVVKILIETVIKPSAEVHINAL

T4: subunit G (Vma10p) with FLAG tag (S. cerevisiae, UniProt P48836 1-114)
T4 construct: V-ATPase subunit G (Vma10p), S. cerevisiae, 114 amino acids; also called G-FLAG; FLAG-G; source: E. coli, from the bicistronic MBP-FLAG-G / E construct, purified (amylose, PreScission cleavage of MBP, DEAE, amylose); not shown: MBP, N-terminal, cleaved
T4 sequence (looked up): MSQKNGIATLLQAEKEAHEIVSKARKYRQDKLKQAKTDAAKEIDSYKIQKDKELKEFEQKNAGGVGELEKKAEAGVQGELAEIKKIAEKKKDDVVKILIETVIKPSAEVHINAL

T5: C-terminal domain of subunit H (HCT), N-terminal MBP fusion (S. cerevisiae, UniProt P41807 353-478)
T5 construct: V-ATPase subunit H (Vma13p), S. cerevisiae, C-terminal globular domain 353-478 (126 amino acids); Construct provided by the laboratory of Dr. Patricia Kane; also called MBP-HCT; source: E. coli, purified (amylose column; ultrafiltration or size exclusion chromatography); not shown: MBP, N-terminal, kept
T5 sequence (looked up): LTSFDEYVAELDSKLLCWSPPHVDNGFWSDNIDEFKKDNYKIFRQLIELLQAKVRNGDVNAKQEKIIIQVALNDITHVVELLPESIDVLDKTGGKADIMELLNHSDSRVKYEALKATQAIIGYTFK


Key:
Test in all cases: peptide or protein array; 20-mer peptides linked at their C-terminal end to cellulose and spotted in duplicate on glass slides; blocked in 2% nonfat milk; purified probe at 4 µM in TBS for 1 hour at 4°C; bound probe detected through MBP or FLAG with HRP-coupled antibody (chemiluminescence); hits by ANOVA (p 0.05, Bonferroni) and HCL in MeV, score of at least 1 in 75% of the spots
Details in all cases: both partners purified
[1] = target: T1, full-length subunit H (Vma13p), …
[2] = target: T2, subunit E (Vma4p), N-terminal MBP fusion
[3] = target: T3, EG heterodimer (untagged subunit E with …)
[4] = target: T4, subunit G (Vma10p) with FLAG tag
[5] = target: T5, C-terminal domain of subunit H (HCT), …

Row | binding result [1] | binding result [2] | Binder | also measured
1 | binds | binds | RNGLLSNNQYINLTQCDTLE-cellulose (peptide, UniProt P32366 21-40, looked up, reading uncertain, V-ATPase Vo subunit d, S. cerevisiae, residues 21-40; source: synthetic peptide, spotted on glass slide array (Intavis)) [d(21-40)] | 
2 |  | binds | RNKLYKAYLEDFYNFVTEEI-cellulose (peptide, UniProt P32366 181-200, looked up, reading uncertain, source: synthetic peptide, spotted on glass slide array (Intavis)) [d(181-200)] | 
3 | binds |  | FLDLLKLVKITIKEKVSRLC-cellulose (peptide, UniProt P41807 271-290, looked up, reading uncertain, source: synthetic peptide, spotted on glass slide array (Intavis)) [H(271-290)] | binding result [4]: binds
4 |  | binds | DFEGVRAALANVYEYRGFLE-cellulose (peptide, UniProt P32366 261-280, looked up, reading uncertain, source: synthetic peptide, spotted on glass slide array (Intavis)) [d(261-280)] | 
5 | binds |  | LTGYITEGQIFVDRQLHNKG-cellulose (peptide, UniProt P16140 349-368, looked up, reading uncertain, source: synthetic peptide, spotted on glass slide array (Intavis)) [B(349-368)] | binding result [4]: binds
6 | binds | binds | KAEAGVQGELAEIKKIAEKK-cellulose (peptide, UniProt P48836 71-90, looked up, reading uncertain, V-ATPase subunit G (Vma10p), S. cerevisiae, residues 71-90; source: synthetic peptide, spotted on glass slide array (Intavis)) [G(71-90)] | 
7 | binds |  | FQRTFVNEIRRLDNVERQYR-cellulose (peptide, UniProt P32563 51-70, looked up, reading uncertain, V-ATPase Vo subunit a (gene Vph1), S. cerevisiae, residues 51-70; source: synthetic peptide, spotted on glass slide array (Intavis)) [a(51-70)] | binding result [5]: binds
8 |  | binds | IEVQKNDLEQYRFILQSGDE-cellulose (peptide, UniProt P32563 131-150, looked up, reading uncertain, source: synthetic peptide, spotted on glass slide array (Intavis)) [a(131-150)] | 
9 | binds |  | ILEIPSKDHPYDPEKDSVLK-cellulose (peptide, UniProt P39111 91-110, looked up, reading uncertain, V-ATPase subunit F, S. cerevisiae, residues 91-110; source: synthetic peptide, spotted on glass slide array (Intavis)) [F(91-110)] | binding result [4]: binds; binding result [3]: binds
10 | binds | binds | GWFDTLPTLSVATDLESLYE-cellulose (peptide, UniProt P32366 131-150, looked up, reading uncertain, source: synthetic peptide, spotted on glass slide array (Intavis)) [d(131-150)] | 
11 |  | binds | SDEELRQDISNLKEILENEY-cellulose (peptide, UniProt P41807 331-350, looked up, reading uncertain, V-ATPase subunit H (Vma13p), S. cerevisiae; source: synthetic peptide, spotted on glass slide array (Intavis)) [H(331)] | 

Second part, the binder before the results:

Row | Binder | binding result [1] | binding result [2] | also measured
12 | YGNFLSSVSSESLTTSLIQE-cellulose (peptide, UniProt P32366 51-70, looked up, reading uncertain, V-ATPase Vo subunit d, S. cerevisiae, residues 51-70; source: synthetic peptide, spotted on glass slide array (Intavis)) [d(51-70)] | binds | binds | 
13 | EAQQLISAMDADDAEEEEVG-cellulose (peptide, UniProt P32563 681-700, looked up, reading uncertain, source: synthetic peptide, spotted on glass slide array (Intavis)) [a(681-700)] |  | binds | 
14 | QEGKTTKEEITDKFNHFTEE-cellulose (peptide, UniProt P39111 41-60, looked up, reading uncertain, V-ATPase subunit F, S. cerevisiae, residues 41-60; source: synthetic peptide, spotted on glass slide array (Intavis)) [F(41-60)] | binds | binds | 
15 | DCKKSVQNLIAELLSSDKYG-cellulose (peptide, UniProt P41807 91-110, looked up, reading uncertain, V-ATPase subunit H (Vma13p), S. cerevisiae, residues 91-110; source: synthetic peptide, spotted on glass slide array (Intavis)) [H(91-110)] |  |  | binding result [3]: binds
16 | FFLKGDNTDSTSYMDEDMID-cellulose (peptide, UniProt P32563 151-170, looked up, reading uncertain, source: synthetic peptide, spotted on glass slide array (Intavis)) [a(151-170)] |  | binds | 
17 | LSDLYTVLKTTSTTLESELY-cellulose (peptide, UniProt P32563 281-300, looked up, reading uncertain, source: synthetic peptide, spotted on glass slide array (Intavis)) [a(281-300)] |  | binds | binding result [3]: binds
18 | ATDSQLATRIVATNSNHLGI-cellulose (peptide, UniProt P41807 221-240, looked up, reading uncertain, source: synthetic peptide, spotted on glass slide array (Intavis)) [H(221-240)] |  |  | binding result [4]: binds; binding result [5]: binds
19 | LPPHFNIKIIAVPPKNLSKC-cellulose (peptide, UniProt P31412 321-340, looked up, reading uncertain, source: synthetic peptide, spotted on glass slide array (Intavis)) [C(321-340)] | binds |  | binding result [5]: binds
20 | FRDLNSKVRAFQRTFVNEIR-cellulose (peptide, UniProt P32563 41-60, looked up, reading uncertain, V-ATPase Vo subunit a (gene Vph1), S. cerevisiae, residues 41-60; source: synthetic peptide, spotted on glass slide array (Intavis)) [a(41-60)] | binds |  | binding result [5]: binds
21 | LDTNHTPPTFHRTNKFTAGF-cellulose (peptide, UniProt P32563 371-390, looked up, reading uncertain, source: synthetic peptide, spotted on glass slide array (Intavis)) [a(371-390)] |  |  | binding result [4]: binds; binding result [5]: binds
22 | GEEALSIEDKLSLEFLEKFE-cellulose (peptide, UniProt P16140 421-440, looked up, reading uncertain, V-ATPase subunit B, S. cerevisiae; source: synthetic peptide, spotted on glass slide array (Intavis)) [B(421)] |  | binds | 
23 | TENTIAYINSELDELDREEF-cellulose (peptide, UniProt P32610 181-200, looked up, reading uncertain, source: synthetic peptide, spotted on glass slide array (Intavis)) [D(181-200)] |  | binds | 
24 | VRNETNNIDGNFKSKLKKAM-cellulose (peptide, UniProt P22203 51-70, looked up, reading uncertain, V-ATPase subunit E (Vma4p), S. cerevisiae, residues 51-70; source: synthetic peptide, spotted on glass slide array (Intavis)) [E(51-70)] |  |  | binding result [3]: binds
25 | EVIKVTNRRVNAIEHVIIPR-cellulose (peptide, UniProt P32610 161-180, looked up, reading uncertain, source: synthetic peptide, spotted on glass slide array (Intavis)) [D(161-180)] |  |  | binding result [4]: binds
26 | AWHGTENALLFSNSYKMKLS-cellulose (peptide, UniProt P32563 521-540, looked up, reading uncertain, source: synthetic peptide, spotted on glass slide array (Intavis)) [a(521-540)] |  |  | binding result [5]: binds
27 | DTCYVCIRLLQELAVIPEYR-cellulose (peptide, UniProt P41807 181-200, looked up, cysteine pairing not given here; reading uncertain, source: synthetic peptide, spotted on glass slide array (Intavis)) [H(181-200)] |  |  | binding result [3]: binds
28 | TSTTLESELYAIAKELDSWF-cellulose (peptide, UniProt P32563 291-310, looked up, reading uncertain, source: synthetic peptide, spotted on glass slide array (Intavis)) [a(291-310)] |  |  | binding result [3]: binds
